Like-named read-outs stand apart in the source and are kept apart here. Where no end group is shown, it is not given here. The star is where a group is joined. Biotin = O=C1N[C@H]2[C@H](CS[C@H]2CCCCC(=O)*)N1; TTDS = NCCCOCCOCCOCCCNC(=O)CCC(=O)*

Assay [1] addresses T1, MBP-fused PDZ domain of HTRA1 (human, UniProt Q92743 365-467). Nature of the assay: fluorescence polarisation. In general terms: In fluorescence polarisation assays a small probe gives low polarisation when free and higher when bound to something large.
Assay [2] has as its target T2, MBP-fused PDZ domain of SNTG2 (human, UniProt Q9NY99 73-156).
T2 sequence (looked up): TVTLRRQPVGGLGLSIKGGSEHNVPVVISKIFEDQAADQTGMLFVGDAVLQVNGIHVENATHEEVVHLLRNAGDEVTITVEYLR
Nature of the assay: fluorescence polarisation.

The target in assay [3] is T3, MBP-fused PDZ domain 2 of GRID2IP (human, UniProt A4D2P6 279-356). Put plainly: fluorescence polarisation.
Assay [4] deals with T4, MBP-fused PDZ domain of SNTB1 (human, UniProt Q13884 112-195).
T4 sequence (looked up): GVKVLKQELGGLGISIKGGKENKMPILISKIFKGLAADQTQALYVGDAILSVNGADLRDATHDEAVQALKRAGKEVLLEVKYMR
Put plainly: fluorescence polarisation.

Assay [5] concerns the target T5, MBP-fused PDZ domain of SNTA1 (human, UniProt Q13424 87-170).
T5 sequence (looked up): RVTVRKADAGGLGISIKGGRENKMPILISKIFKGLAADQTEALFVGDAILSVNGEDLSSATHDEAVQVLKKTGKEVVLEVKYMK
Nature of the assay: fluorescence polarisation.

In assay [6] the target is T6, MBP-fused PDZ domain 3 of PDZD7 (human, UniProt Q9H5P4 862-934).
T6 sequence (looked up): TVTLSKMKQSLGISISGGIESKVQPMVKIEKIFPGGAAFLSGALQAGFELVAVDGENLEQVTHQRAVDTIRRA
Put plainly: fluorescence polarisation.

Assay [7] addresses T7, MBP-fused PDZ domain of MAST2 (human, UniProt Q6P0Q8 1104-1192).
T7 sequence (looked up): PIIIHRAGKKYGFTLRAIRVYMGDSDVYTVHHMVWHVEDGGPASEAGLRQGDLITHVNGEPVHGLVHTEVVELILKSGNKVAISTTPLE
Nature of the assay: fluorescence polarisation.

In assay [8] the target is T8, MBP-fused PDZ domain of SNX27 (human, UniProt Q96L92 43-136). Put plainly: fluorescence polarisation.
For assay [9], the target named is T9, MBP-fused PDZ domain of MAST1 (human, UniProt Q9Y2H9 967-1055).
T9 sequence (looked up): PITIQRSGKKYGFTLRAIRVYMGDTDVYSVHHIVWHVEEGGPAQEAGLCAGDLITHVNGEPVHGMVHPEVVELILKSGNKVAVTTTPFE
Put plainly: fluorescence polarisation.

For assay [10], the target named is T10, MBP-fused PDZ domain 1 of PARD3B (human, UniProt Q8TEW8 201-289).
T10 sequence (looked up): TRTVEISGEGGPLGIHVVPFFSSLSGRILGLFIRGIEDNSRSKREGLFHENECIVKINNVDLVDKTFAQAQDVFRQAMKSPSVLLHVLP
Nature of the assay: fluorescence polarisation.

In assay [11] the target is T1, MBP-fused PDZ domain of HTRA1. Nature of the assay: fluorescence polarisation. This is another data set of the same source.
Assay [12] deals with MBP-fused PDZ domain 2 of MAGI2 (human, UniProt Q86UL8 426-510). Put plainly: fluorescence polarisation.
Assay [13] deals with T2, MBP-fused PDZ domain of SNTG2. Put plainly: fluorescence polarisation. The source holds these as a separate data set.
In assay [14] the target is T3, MBP-fused PDZ domain 2 of GRID2IP. Nature of the assay: fluorescence polarisation. This is another data set of the same source.
For assay [15], the target named is T4, MBP-fused PDZ domain of SNTB1. Nature of the assay: fluorescence polarisation. This is another data set of the same source.
For assay [16], the target named is T5, MBP-fused PDZ domain of SNTA1. Put plainly: fluorescence polarisation. This is another data set of the same source.
Assay [17] concerns the target T6, MBP-fused PDZ domain 3 of PDZD7. Nature of the assay: fluorescence polarisation. This is another data set of the same source.
Assay [18] deals with T7, MBP-fused PDZ domain of MAST2. Put plainly: fluorescence polarisation. This is another data set of the same source.
Assay [19] deals with T11, MBP-fused PDZ domain 1 of PDZRN4 (human, UniProt Q6ZMN7 224-314).
T11 sequence (looked up): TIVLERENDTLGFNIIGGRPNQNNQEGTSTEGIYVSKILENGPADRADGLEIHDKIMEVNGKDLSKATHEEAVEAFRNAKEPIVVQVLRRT
Put plainly: fluorescence polarisation.

In assay [20] the target is T12, MBP-fused PDZ domain of SYNJ2BP (human, UniProt P57105 13-100).
T12 sequence (looked up): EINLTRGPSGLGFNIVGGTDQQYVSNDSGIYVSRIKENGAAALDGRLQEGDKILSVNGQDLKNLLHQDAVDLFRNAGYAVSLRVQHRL
Put plainly: fluorescence polarisation.

The target in assay [21] is T8, MBP-fused PDZ domain of SNX27. Put plainly: fluorescence polarisation. This is another data set of the same source.
Assay [22] addresses T13, MBP-fused PDZ domain 1 of NHERF3 (human, UniProt Q5T2W1 9-90).
T13 sequence (looked up): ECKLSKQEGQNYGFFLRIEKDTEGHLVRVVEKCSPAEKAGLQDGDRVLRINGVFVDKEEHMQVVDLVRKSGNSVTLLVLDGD
Put plainly: fluorescence polarisation.

Assay [23] has as its target T9, MBP-fused PDZ domain of MAST1. Nature of the assay: fluorescence polarisation. This is another data set of the same source.
Assay [24] deals with T14, MBP-fused PDZ domain of ARHGEF12 (human, UniProt Q9NZN5 72-151).
T14 sequence (looked up): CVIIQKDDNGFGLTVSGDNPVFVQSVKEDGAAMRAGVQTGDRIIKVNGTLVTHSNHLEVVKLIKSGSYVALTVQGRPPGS
Nature of the assay: fluorescence polarisation.

Assay [25] addresses T15, MBP-fused PDZ domain 1 of PDZRN3 (human, UniProt Q9UPQ7 249-339).
T15 sequence (looked up): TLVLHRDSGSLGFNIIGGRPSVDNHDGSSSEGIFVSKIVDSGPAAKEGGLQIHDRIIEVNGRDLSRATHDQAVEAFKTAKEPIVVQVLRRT
Nature of the assay: fluorescence polarisation.

For assay [26], the target named is T10, MBP-fused PDZ domain 1 of PARD3B. Put plainly: fluorescence polarisation. The source holds these as a separate data set.
In assay [27] the target is T16, biotinylated RSK1 725-735 peptide, unphosphorylated (human, UniProt Q15418 725-735).
T16 peptide (looked up): {Biotin-TTDS}-RRVRKLPSTTL
Nature of the assay: holdup assay.

T1 sequence (Q92743 365-467): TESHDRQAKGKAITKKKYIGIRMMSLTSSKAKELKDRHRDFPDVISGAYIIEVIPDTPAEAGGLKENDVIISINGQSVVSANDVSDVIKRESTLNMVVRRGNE
T3 sequence (A4D2P6 279-356): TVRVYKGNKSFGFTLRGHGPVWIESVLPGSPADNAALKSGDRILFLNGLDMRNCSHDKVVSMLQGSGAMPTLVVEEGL
Sequence of MBP-fused PDZ domain 2 of MAGI2 (Q86UL8 426-510): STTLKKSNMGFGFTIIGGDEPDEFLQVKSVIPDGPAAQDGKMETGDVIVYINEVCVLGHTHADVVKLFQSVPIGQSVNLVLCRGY

B1: RSK1 683-735 peptide, unphosphorylated (peptide, UniProt Q15418 683-735, looked up)
peptide: QSQLSHQDLQLVKGAMAATYSALNSSKPTPQLKPIESSILAQRRVRKLPSTTL
With B1, the Kd (usually the free concentration of one partner at which half of the binding sites on the other are occupied at equilibrium, for simple one-to-one binding) in assay [1] turned out to be 19 ± 3 µM; in assay [2], 24 ± 12 µM; in assay [3] it was 1.7 ± 0.3 µM; in [4], 37 ± 6 µM; in assay [5], 81 ± 17 µM; in assay [6] it was 4 ± 1 µM. Also, the Kd in assay [7] was determined as 19 ± 7 µM; in assay [8] it was 185 ± 25 µM; in assay [9] it was 5 ± 1 µM; in assay [10], 45 ± 7 µM.
In the case of KLPSTTL (peptide, UniProt Q15418 729-735, looked up, phosphorylated; fluorescein labeled) [fluorescein labeled RSK1 729-735 peptide, phosphorylated], the dissociation constant (Kd) in [11] amounted to 11.3 ± 0.4 µM; in assay [12], 430 ± 45 µM; in assay [13], 24 ± 2 µM; in assay [14], 47 ± 15 µM; in [15], 1.5 ± 0.1 µM; in assay [16], 4.9 ± 0.4 µM. The dissociation constant Kd in assay [17] amounted to 1.8 ± 0.1 µM; in assay [18], 13 ± 2 µM; in assay [19], 14 ± 2 µM; in [20], 16 ± 1 µM; in [21] it was 4.4 ± 0.4 µM; in [22], 220 ± 30 µM. The Kd in [23] was 34 ± 8 µM; in [24] it was 29 ± 8 µM; in [25] it was 17.5 ± 1.4 µM; in assay [26] it was 6.8 ± 0.5 µM.

B2: first PDZ domain of Scribble (domain or fragment)
chain: not shown
With B2, in assay [27], the Kd was in the range of 60 to 70 µM.
In the case of KLPSTTL (peptide, UniProt Q15418 729-735, looked up, also: fluorescein labeled, site not given here) [fluorescein labeled RSK1 729-735 peptide, unphosphorylated], the dissociation constant Kd in assay [11] was 30 ± 2 µM; in assay [12], 420 ± 30 µM; in assay [13] it was 65 ± 2 µM; in [14], 5.1 ± 0.4 µM; in assay [15], 18 ± 2 µM; in [16] it was 41 ± 11 µM. The dissociation constant (Kd) was 0.8 ± 0.05 µM in assay [17]; 7.9 ± 0.6 µM in assay [18]; 33 ± 5 µM in assay [19]; 39 ± 2 µM in [20]; 25 ± 6 µM in assay [21]; 80 ± 20 µM in [22]. Also, the Kd in [23] was determined as 26 ± 4 µM; in assay [24], 7.5 ± 0.8 µM; in assay [25], 90 ± 25 µM; in [26], 27 ± 3 µM.

These data come from article PMC6424611 (Journal of molecular biology, 2019).
